One may read the Kd as the concentration at which binding is half-saturated. The stoichiometry N is a count of units in the complex or per binding partner.

Changes are numbered by the printed parent chain. Values joined by “and” are separate entries in the source; they are usually repeats but may differ in a detail not shown here. Equal entries are not always repeated.

Data set [1] concerns the target T1, NrdR (Streptomyces coelicolor, UniProt O69980).
T1 construct: full-length wild type, C-terminal His tag (pET30a(+)::nrdR), E. coli BL21(DE3); apo dimer 44 kDa, dodecamer with ATP, octamer/tetramer with dATP + ATP
In words: isothermal titration calorimetry, one set of sites. In kind it is binding. Conditions: 10 mM MgCl2, 50 mM Tris-HCl pH 8, 300 mM NaCl, 10% glycerol, 1 mM TCEP; 20 and 10 °C (which one not told). Background: ITC needs no label: the signal is the heat of the interaction.

The target of data set [2] is T1, NrdR. The data set is described as follows: isothermal titration calorimetry, one set of sites. The data set is classed as binding.
The target in data set [3] is NrdRΔNΔC, truncated S. coelicolor NrdR lacking both N- and C-terminal domains (Streptomyces coelicolor) (UniProt O69980). The data set is described as follows: SEC; analytical SEC, Superdex 200 PC 3.2/30, 7 °C; 50 mM Tris-HCl pH 8.5, 50 mM KCl, 10 mM MgCl2, 0.5 mM TCEP, nucleotides in sample and buffer; 64 µM NrdR samples. Background: SEC sorts molecules by how far they enter the pores of the column.

In a further data set the target is T2, NrdR R17A (Streptomyces coelicolor M145, UniProt O69980 1-182, R17A).
T2 sequence: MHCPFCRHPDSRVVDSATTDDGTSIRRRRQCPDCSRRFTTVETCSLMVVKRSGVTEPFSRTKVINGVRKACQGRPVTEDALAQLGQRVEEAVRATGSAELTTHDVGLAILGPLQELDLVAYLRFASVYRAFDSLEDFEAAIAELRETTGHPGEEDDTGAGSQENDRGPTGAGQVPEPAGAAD
In words: MST; 1 mM dATP + 1 mM ATP; MST: 25 mM Tris-HCl pH 7.6, 150 mM NaCl, 10 mM MgCl2, 5% glycerol, 1 mM DTT, 0.05% Tween-20, nucleotides 1 mM each, 10 nM Cy5-dsDNA, room temperature. To be noted: protein: recombinant; tags: C-terminal His6 (pET30a); label: 5'-Cy5 on sense strand; blunt.

Another data set concerns the target T3, NrdR D15A/R17A (Streptomyces coelicolor M145, UniProt O69980 1-182, D15A;R17A).
T3 sequence: T2 sequence with D15A
The data set is described as above. Conditions: protein: recombinant; tags: C-terminal His6 (pET30a); label: 5'-Cy5 on sense strand; blunt.

A further data set has as its target T4, NrdR D15A (Streptomyces coelicolor M145, UniProt O69980 1-182, D15A).
T4 sequence: T2 sequence with D15A, A17R
The data set is described as above. To be noted: protein: recombinant; tags: C-terminal His6 (pET30a); label: 5'-Cy5 on sense strand; blunt.

Data set [4] has as its target T5, NrdR (Streptomyces coelicolor M145, UniProt O69980 1-182).
T5 sequence: T2 sequence with A17R
The data set is described as follows: MST; 1 mM dATP + 1 mM ADP, 10 mM Mg2+; MST: 25 mM Tris-HCl pH 7.6, 150 mM NaCl, 10 mM MgCl2, 5% glycerol, 1 mM DTT, 0.05% Tween-20, nucleotides 1 mM each, 10 nM Cy5-dsDNA, room temperature. Conditions: protein: recombinant; tags: C-terminal His6 (pET30a); chain copies: 4; label: 5'-Cy5 on sense strand; blunt.

In data set [5] the target is T5, NrdR. The data set is described as follows: MST; 1 mM dATP + 1 mM ATP, 10 mM Mg2+; MST: 25 mM Tris-HCl pH 7.6, 150 mM NaCl, 10 mM MgCl2, 5% glycerol, 1 mM DTT, 0.05% Tween-20, nucleotides 1 mM each, 10 nM Cy5-dsDNA, room temperature. To be noted: protein: recombinant; tags: C-terminal His6 (pET30a); chain copies: 4; label: 5'-Cy5 on sense strand; blunt.
Data set [6] addresses T5, NrdR. The data set is described as follows: MST; 1 mM dATP + 1 mM ATP; MST: 25 mM Tris-HCl pH 7.6, 150 mM NaCl, 10 mM MgCl2, 5% glycerol, 1 mM DTT, 0.05% Tween-20, nucleotides 1 mM each, 10 nM Cy5-dsDNA, room temperature. To be noted: protein: recombinant; tags: C-terminal His6 (pET30a); chain copies: 4; label: 5'-Cy5 on sense strand; blunt.
Data set [7] concerns the molecule itself. The data set is described as follows: GEMMA (gas-phase electrophoretic mobility molecular analysis); with 50 µM dAMP and equimolar Mg acetate; 0.08 mg/ml; 100 mM ammonium acetate pH 7.3, 0.005% Tween-20.
Data set [8] concerns the molecule itself. In words: cryo-EM structure; ATP-loaded NrdR; 1 mM ATP and 10 mM MgCl2 added to apo-protein, SEC in 50 mM Tris-HCl pH 8.0, 150 mM NaCl, 10 mM MgCl2, 1 mM TCEP, 0.5 mM ATP; 0.4 mg/ml (19 µM monomer) on grids.
Data set [9] concerns the molecule itself. The data set is described as follows: GEMMA (gas-phase electrophoretic mobility molecular analysis); with dATP + ATP (50 µM nucleotide) and equimolar Mg acetate; 0.08 and 0.16 mg/ml; 100 mM ammonium acetate pH 7.3, 0.005% Tween-20.
The target of data set [10] is T5, NrdR. The data set is described as follows: MST; MST: 25 mM Tris-HCl pH 7.6, 150 mM NaCl, 10 mM MgCl2, 5% glycerol, 1 mM DTT, 0.05% Tween-20, nucleotides 1 mM each, 10 nM Cy5-dsDNA, room temperature. Conditions: protein: recombinant; tags: C-terminal His6 (pET30a); chain copies: 4; label: 5'-Cy5 on sense strand; blunt.

T1 sequence (O69980 whole entry): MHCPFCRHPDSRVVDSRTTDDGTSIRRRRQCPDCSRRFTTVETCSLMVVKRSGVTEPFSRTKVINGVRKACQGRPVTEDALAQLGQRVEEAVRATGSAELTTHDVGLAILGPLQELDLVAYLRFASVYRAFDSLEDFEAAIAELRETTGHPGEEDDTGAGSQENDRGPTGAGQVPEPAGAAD

`Nc1ncnc2c1ncn2[C@@H]1O[C@H](COP(=O)(O)O)[C@@H](O)[C@H]1O` [AMP]: on NrdR [1], the KD result is “AMP, dAMP, and di-cyclic AMP were comparable to ATP in binding strengths”.

In turn, `Nc1ncnc2c1ncn2[C@@H]1O[C@H](COP(=O)(O)OP(=O)(O)O)[C@@H](O)[C@H]1O` [ADP] had a Kd at NrdR [2] of 600 nM.

With `Nc1ncnc2c1ncn2[C@H]1C[C@H](O)[C@@H](COP(=O)(O)O)O1` [dAMP], at NrdR [1], the KD result was “AMP, dAMP, and di-cyclic AMP were comparable to ATP in binding strengths”. Consider “NrdRΔNΔC, truncated S. coelicolor NrdR lacking both N- and C-terminal domains (from UniProt O69980 1-182) (domain or fragment)”, for which the stoichiometry N in data set [3] was determined as 2.

`Nc1ncnc2c1ncn2[C@H]1C[C@H](O)[C@@H](COP(=O)(O)OP(=O)(O)O)O1` [dADP]: binding at NrdR [2] was characterised by a dissociation constant (Kd) of 400 nM. In the case of `Nc1ncnc2c1ncn2[C@@H]1O[C@@H]2COP(=O)(O)O[C@H]3[C@@H](O)[C@H](n4cnc5c(N)ncnc54)O[C@@H]3COP(=O)(O)O[C@H]2[C@H]1O` [cyclic di-AMP], at NrdR [1], the KD entry was “AMP, dAMP, and di-cyclic AMP were comparable to ATP in binding strengths”. Take `Nc1ncnc2c1ncn2[C@H]1C[C@H](O)[C@@H](COP(=O)(O)OP(=O)(O)OP(=O)(O)O)O1` [dATP]: on NrdR [2], the Kd turned out to be 1000 nM. The molecule `Nc1ncnc2c1ncn2[C@@H]1O[C@H](COP(=O)(O)OP(=O)(O)OP(=O)(O)O)[C@@H](O)[C@H]1O` [ATP] displayed a Kd at NrdR [2] of 4000 nM.

B1: nrdRJ promoter 57 bp (dsDNA)
DNA 1: GCCAATCCCCACATCTAGTGGTTGGATAGCGTGAGCAGCCCACAAGTTGTGGTCCCC
DNA 2: GGGGACCACAACTTGTGGGCTGCTCACGCTATCCAACCACTAGATGTGGGGATTGGC
On to B1, for which the binding result with NrdR R17A is listed as “no binding”; in the data set with NrdR D15A/R17A it was “no binding”; with NrdR D15A it was “binds”. In addition, the Kd was determined as 68 ± 16 nM with NrdR [4] and 51 ± 11 nM with NrdR [5].

B2: nrdRJ T9/T18/T40/T49 (dsDNA)
DNA 1: B1 DNA 1 with C9T, G18T, C40T, G49T
DNA 2: B1 DNA 2 with C9A, G18A, C40A, G49A
As for B2, the binding result in the data set with NrdR R17A is on record as “no binding”.

B3: nrdRJ C18/C49 (dsDNA)
DNA 1: B1 DNA 1 with G18C, G49C
DNA 2: B1 DNA 2 with C9G, C40G
As for B3, the binding result with NrdR R17A is reported as “no binding”. The “fold decrease in affinity vs wild-type DNA” value with NrdR [6] was ~60 fold lower affinity than wild-type DNA.

B4: nrdRJ G9/C18 (dsDNA)
DNA 1: B1 DNA 1 with C9G, G18C
DNA 2: B1 DNA 2 with C40G, G49C
B4: the binding result with NrdR R17A was “no binding”. Also, in the data set with NrdR [6], the “fold decrease in affinity vs wild-type DNA” value is ~50 fold lower affinity than wild-type DNA.

B5: Streptomyces coelicolor NrdR (wild type) (natural protein)
chain: T2 sequence with A17R
notes: RNR-specific transcriptional repressor NrdR of Streptomyces coelicolor strain M145; the nrdR gene cloned into pET30a(+), wild type; N-terminal Zn-ribbon domain followed by an ATP-cone domain and a C-terminal part; the wild-type nrdR gene was amplified, so probably the whole protein; Holds about 0.78 mol Zn per mol protein; also called apo-NrdR; ATP-loaded NrdR
For B5, the “stoichiometry N” value was 2 in data set [7]; 12 in data set [8]; 8 and 4 in data set [9].

B6: cydA promoter 57 bp (dsDNA)
DNA 1: GTAGGTCATAATTGCTTGTGAATGTGAACGCGTTCACAAGCGTGTCCCGATTGCGCC
DNA 2: GGCGCAATCGGGACACGCTTGTGAACGCGTTCACATTCACAAGCAATTATGACCTAC
In the case of B6, the binding result with NrdR [10] and with NrdR R17A was “no binding” throughout. The Kd with NrdR D15A was 2600 ± 300 nM.

B7: nrdAB promoter 57 bp (dsDNA)
DNA 1: CCGGGACACAACATCTGGGGGTGCTCGCGTCCCCCGGCACAAGATGTATGCTCATGC
DNA 2: GCATGAGCATACATCTTGTGCCGGGGGACGCGAGCACCCCCAGATGTTGTGTCCCGG
With B7, the figures for the Kd in the data set with NrdR [4] and in the data set with NrdR [5] were 159 ± 22 nM and 142 ± 31 nM, respectively.

(Values after paper PMC9110341, “A nucleotide-sensing oligomerization mechanism that controls NrdR-dependent transcription of ribonucleotide reductases” (Nature Communications, 2022).)
